Reference: paper PMC2118908

Target: gp41 of HIV-1/IIIB virions (virus stock, culture supernatant) (HIV-1 (isolate IIIB)) (UniProt P04578)
Assay: SEC + ELISA

Substance: gp120 of HIV-1/IIIB virions (virus stock, culture supernatant) (from UniProt P04578 33-511) (natural protein)
- percent of total gp120 virion bound (virus + sCD4): 24%
- percent of total gp120 virion bound (virus + sCD4 + thrombin): 18%
- percent of total gp120 virion bound (virus + thrombin + sCD4): 20%
- percent of total gp120 virion bound (virus + thrombin): 59%
- percent of total gp120 virion bound (virus alone): 57%
- percent of total gp120 virion-bound (virus stock): 55%
- reduction of virion bound gp120 after 10 h at 4C with sCD4: 10%
